According to patent US20250297032A1 (CONCEPT TO MEDICINE BIOTECH, published 2025):
Positions count from the first letter of the chain named.

T1: human FAPα on CHO-K1-hFAPα cells (human, UniProt Q12884 1-760)
T1 construct: whole, on cells; also called cell-surface FAPα
T1 sequence (looked up): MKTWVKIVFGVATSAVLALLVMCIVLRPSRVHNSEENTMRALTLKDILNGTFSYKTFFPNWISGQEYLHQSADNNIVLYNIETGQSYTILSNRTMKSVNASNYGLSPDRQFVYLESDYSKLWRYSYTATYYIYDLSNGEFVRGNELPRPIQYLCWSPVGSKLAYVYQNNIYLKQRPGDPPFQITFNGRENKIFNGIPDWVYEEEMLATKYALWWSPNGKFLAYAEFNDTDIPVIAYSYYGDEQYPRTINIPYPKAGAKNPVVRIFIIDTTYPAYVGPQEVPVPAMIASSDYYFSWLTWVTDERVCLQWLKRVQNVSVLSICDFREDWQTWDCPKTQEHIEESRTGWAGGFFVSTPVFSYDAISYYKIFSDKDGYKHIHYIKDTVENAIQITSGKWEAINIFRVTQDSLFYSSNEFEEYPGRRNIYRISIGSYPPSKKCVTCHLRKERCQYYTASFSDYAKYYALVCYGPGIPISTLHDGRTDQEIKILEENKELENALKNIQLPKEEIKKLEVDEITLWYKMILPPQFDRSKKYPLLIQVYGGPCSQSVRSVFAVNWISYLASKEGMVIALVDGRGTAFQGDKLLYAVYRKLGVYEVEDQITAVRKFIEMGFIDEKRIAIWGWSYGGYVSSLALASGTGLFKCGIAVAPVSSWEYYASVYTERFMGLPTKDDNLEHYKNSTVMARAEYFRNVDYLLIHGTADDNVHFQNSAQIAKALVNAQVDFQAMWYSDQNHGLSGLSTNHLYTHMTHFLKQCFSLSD

T2: human FAPα-His tag (Sino biological) (human, UniProt Q12884 26-760)
T2 construct: Bought protein; also called human FAPα-His protein; not shown: His tag
T2 sequence (looked up): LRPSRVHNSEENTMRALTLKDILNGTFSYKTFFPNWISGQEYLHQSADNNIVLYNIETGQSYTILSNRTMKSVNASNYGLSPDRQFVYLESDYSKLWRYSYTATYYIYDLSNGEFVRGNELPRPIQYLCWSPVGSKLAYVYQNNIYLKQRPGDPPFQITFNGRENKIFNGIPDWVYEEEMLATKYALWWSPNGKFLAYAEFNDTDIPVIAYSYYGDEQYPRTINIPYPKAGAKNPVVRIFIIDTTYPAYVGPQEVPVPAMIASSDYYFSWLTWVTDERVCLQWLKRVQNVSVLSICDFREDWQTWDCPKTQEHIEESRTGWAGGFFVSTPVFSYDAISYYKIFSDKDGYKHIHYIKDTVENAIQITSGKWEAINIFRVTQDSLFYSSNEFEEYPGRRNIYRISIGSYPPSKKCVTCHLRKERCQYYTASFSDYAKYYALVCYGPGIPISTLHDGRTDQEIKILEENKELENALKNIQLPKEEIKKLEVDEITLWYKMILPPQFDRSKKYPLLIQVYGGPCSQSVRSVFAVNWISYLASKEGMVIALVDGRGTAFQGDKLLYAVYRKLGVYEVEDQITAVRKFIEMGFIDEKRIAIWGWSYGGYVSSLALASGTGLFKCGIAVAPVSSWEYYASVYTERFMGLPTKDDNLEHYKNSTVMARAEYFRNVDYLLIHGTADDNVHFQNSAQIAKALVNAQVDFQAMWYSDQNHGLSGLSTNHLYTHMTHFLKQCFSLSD

B1: G14 (antibody, V domains shown)
VH: QVQLLESGGGVVQPGRSLRLSCAASGFTFSSYAMHWVRQAPGKGLEWVAFISHDGNRNSYADSVRGRFTISRDNSKNTLYLQMNSLRAEDTAVYYCARDLGYYNGFSYWGQGTLVTVSA
VL: DIVMTQSPSSVSASVGDRVTITCRASQGISSWLAWYQQKPGKAPKLLIYAASSLQSGVPSRFSGSGSGTDFTLTISSLQPEDFATYYCQQANSFPPTFGPGTKVDIK
notes: Full human antibody from a Fab phage library; Tested as a mAb (detected with anti-human IgG, captured on Protein A); also called FAP-G14; FAP-G14-Bio (biotin-conjugated form)
B2: I37 (antibody, V domains shown)
VH: QLQLVESGGGLVQPGGSLRLSCAASGFTFSSYAMSWVRQAPGKGLEWVSAISGSGGSTYYADSVKGRFTISRDNSKNTLYLQMNSLRAEDTAVYYCARDKPWGGSFDYWGQGTLVTVSA
VL: B1 VL with V3Q, M4L, V11L, P96V
notes: Tested as a mAb; also called FAP-I37
B3: I30 (antibody, V domains shown)
VH: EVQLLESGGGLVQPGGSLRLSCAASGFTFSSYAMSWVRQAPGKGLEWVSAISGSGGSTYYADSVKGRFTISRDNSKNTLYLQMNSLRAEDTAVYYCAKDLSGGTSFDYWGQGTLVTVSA
VL: B1 VL with D1A, V3R, M4L, P100G, D105E
notes: Tested as a mAb; also called 130; FAP-I30
B4: J40 (antibody, V domains shown)
VH: EVQLLESGGGLVQPGGSLRLSCAASGFTFSSYAMSWVRQAPGKGLEWVSAISGSGGSTYYADSVKGRFTISRDNSKNTLYLQMNSLRTDDTAVYYCARDLTTSTGWESWGQGTLVTVSA
VL: B1 VL with D1N, V3Q, P100Q, V104L, D105E
notes: Tested as a mAb; also called FAP-J40; FAP-J40-Bio (biotin-conjugated form)

molecular target: T1, human FAPα on CHO-K1-hFAPα cells; experiment: flow cytometry on CHO-K1-hFAPα cells (MFI of PE); parameters: unit not given beside the values
Experimental: To evaluate the cell-based binding property to human FAPα, the tested antibodies were analyzed for their binding to CHO-K1-hFAPα by FACS. A total number of 1×10⁵ CHO-K1-hFAPα cells in each well were incubated with 4-fold serial diluted antibodies starting from 3 μg/ml for 30 minutes at 4° C. in FACS buffer. After wash by FACS buffer, PE conjugated-anti-human IgG antibody was added to each well and incubated at 4° C. for 30 minutes. After wash, MFI of PE was evaluated by MACSQuant Analyzer 16.

Q: With B1 as the binder, how does the Cmax read?
A: Its Cmax is 515.

Q: B2 was tested. Which Cmax did it give?
A: Its Cmax is 465.

Q: With B3 as the binder, how does the Cmax read?
A: Its Cmax is 455.

Q: B4 was tested. Which Cmax did it give?
A: Its Cmax is 381.

molecular target: T2, human FAPα-His tag (Sino biological); experiment: ELISA, coated human FAPα-His
Experimental: Briefly, microtiter plates were coated with human FAPα-His protein at 0.5 ug/ml in PBS, 100 μl/well at 4° C. overnight, then blocked with 150 μl/well of 1% BSA. Three-fold dilutions of tested antibodies starting from 1 μg/ml were added to each well and incubated for 1 hour at 37° C. The plates were washed with PBS/Tween and then incubated with Anti-Human IgG (H&L) (GOAT) Antibody Peroxidase Conjugated for 30 mins at 37° C. After washing, the plates were developed with TMB substrate and analyzed by spectrophotometer at OD 450 nm. […] FAP-4B9 clone from Roche was served as positive control which labeled as FAPα-BMK.

Q: B1 was tested. Which EC50 did it give?
A: Its EC50 is 4.64 ng/mL.

Q: Which EC50 does the source give for B2 here?
A: The EC50 was 5.4 ng/mL.

Q: Which EC50 does the source give for B3 here?
A: The EC50 was 3.42 ng/mL.

Q: For B4, which EC50 is on record?
A: The EC50 was 3.87 ng/mL.

molecular target: T2, human FAPα-His tag (Sino biological); experiment: competitive ELISA on coated human FAPα; competitor (detected): FAP-I38-Bio
Experimental: Briefly, microtiter plates were coated with human FAPα proteins at 0.5 μg/ml in PBS, 100 μl/well at 4° C. overnight, then blocked with 150 μl/well of 1% BSA. Serial dilutions of chimeric antibodies as well as biotin-conjugated reference mAb were added to each well and incubated for 1 hour at RT. The plates were washed with PBS/Tween and then incubate with streptavidin-HRP for 15 mins at RT. After washing, the plates were developed with TMB substrate and analyzed by spectrophotometer at OD 450 nm. According to the competition ability to reference mAbs (Benchmark, or “BMK”), all tested FAPα mAbs binds to the similar epitope as shown in Table 5.

Q: With B1 as the binder, how does the “OD 450 nm” value read?
A: The value was 0.658 OD 450 nm.

Q: B2 was tested. Which “OD 450 nm” value did it give?
A: The value was 0.703 OD 450 nm.

Q: How did the “OD 450 nm” value turn out when B3 was run?
A: The value was 0.324 OD 450 nm.

Q: B4 was tested. Which “OD 450 nm” value did it give?
A: Its value is 0.527 OD 450 nm.
